Values quoted from earlier work as cited in article PMC7611479.

What was measured:
[1] = target: uroguanylin (Homo sapiens) (UniProt Q16661)
[2] = target: guanylin (Homo sapiens) (UniProt Q02747)

Kd [1]: 1 nM | Kd [2]: 10 nM
Substance: GC-C ECD (from UniProt P25092)
